Results taken from US9120862 (AbbVie / Abbott, dated 2015).
Bridge positions count the residues as written; N and C are the ends. Ends that are not written are not given here.

B1: monoclonal antibody 3C10 (produced by hybridoma cell line ATCC deposit designation PTA-9638) (antibody, V domains shown)
VH: EVQLVESGGDLVKPGGSLKLSCAASGFTFSSYGMSWVRQTPDKRLEWVATISRGGSSTYYPDSVKGRFTISRDNAKNNLYLQMSSLKSEDTAMYYCASLNYGNFFDYWGQGTTLTVSS
VL: DVVMTQTPLSLPVSLGDQASISCRSSQSLVHSNGNTYLHWYLQKPGQSPKLLIYKVSNRFSGVPDRFSGSGSGTDFTLKISRVEAEDLGVYFCSQNRHVPPTFGGGTKLEIKR

Each binder was assayed against B1 (assay: FCS competition: 2 nM Alexa488-PIVKA-II (13-27) premixed with 10 nM mAb 3C10, analog peptide added, overnight; D of the tracer (high D = tracer displaced)).
With LERECIEEICDFEEA (disulfide 5-10 (inferred)) [13-27 Gla domain PIVKA Protein C peptide] the “Apparent Diffusion Coefficient (D)” value was 53 um^2/sec.
With LERECIEELCNKEEA (disulfide 5-10 (inferred)) [13-27 Gla domain PIVKA Protein S peptide] the “Apparent Diffusion Coefficient (D)” value was 50 um^2/sec.
For LEKECYEEICVYEEA (disulfide 5-10 (inferred)) [13-27 Gla domain PIVKA Protein Z peptide], the “Apparent Diffusion Coefficient (D)” value was 51 um^2/sec.
With LERECKEEQCSFEEA (disulfide 5-10 (inferred)) [13-27 Gla domain PIVKA Factor VII peptide] the “Apparent Diffusion Coefficient (D)” value was 49 um^2/sec.
In the case of LERECMEEKCSFEEA (disulfide 5-10 (inferred)) [13-27 Gla domain PIVKA IX peptide], the “Apparent Diffusion Coefficient (D)” value is reported as 48 um^2/sec.
LERECMEETCSYEEA (disulfide 5-10 (inferred)) [13-27 Gla domain PIVKA Factor X peptide] was tested, and the “Apparent Diffusion Coefficient (D)” value was 52 um^2/sec.

Target: T1, Alexa-488 labeled PIVKA-II Gla domain peptide (13-27) (human, disulfide 5-10 (inferred); also: labelled with Alexa Fluor 488 TFP ester, site not given here)
T1 construct: also called Alexa488-PIVKA-II (13-27); Alexa488-PIVKA-II peptide (13-27 cyc)
T1 peptide: LERECVEETCSYEEA
Assay: fluorescence quenching titration: BHQ-labelled mAb 3C10 titrated against 0.05 nM Alexa488 PIVKA-II peptide (13-27)
B1 was tested, and the “EC50 (read off the curve)” value was about 0.1 nM.
